# Results from US20230051701A1 (Bristol-Myers Squibb, published 2023).
# Substitutions are numbered along the chain they refer to. Values joined by “and” are separate entries in the source; they are usually repeats but may differ in a detail not shown here. Equal values may be shown once.
# B1: 4D4 (antibody, human IgG2, kappa)
# heavy: QVQLVESGGGVVQPGRSLRLSCAASGFTFSNYGMHWVRQAPGKGLEWVAVIWYDESNKYYADSVKGRFTISRDNSKNTLFLQMNSLRAEDTAVYYCARGYNSRWYPDAFDIWGQGTMVTVSSASTKGPSVFPLAPCSRSTSESTAALGCLVKDYFPEPVTVSWNSGALTSGVHTFPAVLQSSGLYSLSSVVTVPSSNFGTQTYTCNVDHKPSNTKVDKTVERKCCVECPPCPAPPVAGPSVFLFPPKPKDTLMISRTPEVTCVVVDVSHEDPEVQFNWYVDGVEVHNAKTKPREEQFNSTFRVVSVLTVVHQDWLNGKEYKCKVSNKGLPAPIEKTISKTKGQPREPQVYTLPPSREEMTKNQVSLTCLVKGFYPSDIAVEWESNGQPENNYKTTPPMLDSDGSFFLYSKLTVDKSRWQQGNVFSCSVMHEALHNHYTQKSLSLSPGK
# light: not shown
# notes: IgG2 from hybridoma; also called 4D4-1
# B2: 7A11 (antibody, human IgG1, kappa, V domains shown)
# VH: EVQLVESGGGLVQTGRSLRLSCAASGFTFDDYAMHWVRQAPGKGLEWVSDISWNSDIIGYADSVKGRFTISRDNAKNSLYLQMNSLRAEDTALYYCAKDIYGSGSSFFDYWGQGILVTVSS
# VL: DIQMTQSPSSLSASVGDRVTITCRASQYISSWLAWYQQKPEKAPKSLIYAASSLQSGVPSRFSGSGSGTDFTLTISSLQPEDFATYYCQQYHSYPPTFGQGTRLEIKR
# notes: IgG1za from hybridoma; also called 7A11-1
# B3: 11A6 (antibody, human IgG1, kappa, V domains shown)
# VH: EVQLVESGGNLVQPGRSLRLSCAASGFTFDDYAMHWVRQAPGKGLEWVSGISWNNNDIGYADSVKGRFIISRDNAKNSLYLQMNSLRPEDTALYYCVKGYYVILTGLDYWGQGTPVTVSS
# VL: B2 VL with Y28G, H92N, P96L, Q100G, R103K, L104V
# notes: IgG1za from hybridoma; also called 11A6-1
# B4: 5F8 (antibody, human IgG1, kappa, V domains shown)
# VH: EVQLVESGGGLVQPGGSLRLSCAASGFTFSSYWMHWVRQAPGKGLVWVSRIISDGSSTGYADSVKGRFTISRDNAKNTLYLQMNSLRAEDTAVYYCAREFSSGWYFDYWGQGTLVTVSS
# VL: AIQLTQSPSSLSASVGDRVTITCRASQGISSALAWYQQKPGKAPKLLIYDASSLESGVPSRFSGSGSGTDFTLTISSLQPEDFATYYCQQFSSYPRTFGQGTKVEIKR
# notes: IgG1za from hybridoma; predominant light chain VK1, VK2 also expressed; also called 5F8-1
# Target: T1, human CD73 on cells (Calu6, NCI-H292, SK-MEL-24, human tumor cell lines, human B and T cells) (human, UniProt P21589 27-549)
# T1 sequence: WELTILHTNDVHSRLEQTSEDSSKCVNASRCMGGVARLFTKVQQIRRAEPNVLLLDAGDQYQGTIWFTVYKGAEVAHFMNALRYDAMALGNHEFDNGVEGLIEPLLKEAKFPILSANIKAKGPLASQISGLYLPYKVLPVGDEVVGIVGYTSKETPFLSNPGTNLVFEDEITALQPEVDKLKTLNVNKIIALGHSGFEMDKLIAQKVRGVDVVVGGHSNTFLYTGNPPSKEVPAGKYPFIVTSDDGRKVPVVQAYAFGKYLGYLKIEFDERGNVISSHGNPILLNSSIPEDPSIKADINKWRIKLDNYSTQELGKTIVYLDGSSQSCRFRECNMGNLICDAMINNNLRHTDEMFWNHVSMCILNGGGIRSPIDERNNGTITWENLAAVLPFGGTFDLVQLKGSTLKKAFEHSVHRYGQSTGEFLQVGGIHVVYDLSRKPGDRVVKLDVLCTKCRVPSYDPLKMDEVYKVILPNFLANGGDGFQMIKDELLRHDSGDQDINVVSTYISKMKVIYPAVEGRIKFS
# Assay: cell-based or functional assay
Binder,"EC50 (nM), CD73 internalization, Calu6, 2 h [nM]","Ymax, CD73 internalization, Calu6, 2 h"
B1,0.38,104 % of 100 nM 11F11
B2,2.59,50 % of 100 nM 11F11

# Target: T1, human CD73 on cells (Calu6, NCI-H292, …)
# Assay: cell-based or functional assay
# Remark: another data set of the same source
Binder,"IC50 (nM), cAMP HTRF assay, Calu-6 with HEK293/A2AR cells [nM]","Ymax, cAMP HTRF assay"
B2,0.95,45 % of 100 nM 11F11
B3,4.87,84 % of 100 nM 11F11
B4,13.2,80 % of 100 nM 11F11

# Target: T2, N-terminal domain of hCD73 (residues 26-336 of human CD73), His-tagged (human, UniProt P21589 26-336)
# T2 construct: also called N-hCD73; N-hCD73-his
# T2 sequence: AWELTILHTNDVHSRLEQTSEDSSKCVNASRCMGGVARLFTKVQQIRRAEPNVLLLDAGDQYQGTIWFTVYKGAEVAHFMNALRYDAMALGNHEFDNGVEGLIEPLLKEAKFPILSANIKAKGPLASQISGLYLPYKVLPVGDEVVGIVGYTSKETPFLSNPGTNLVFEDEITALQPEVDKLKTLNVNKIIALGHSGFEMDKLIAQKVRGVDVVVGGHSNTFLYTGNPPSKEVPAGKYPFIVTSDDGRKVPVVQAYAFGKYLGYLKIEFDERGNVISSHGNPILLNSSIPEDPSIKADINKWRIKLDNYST
# Assay: SPR, mAb captured on protein A
# Experimental: For these experiments, protein A (Pierce) was immobilized to a density of 3000 — 4000 RU on flow cells 1-4 of a CM5 sensor chip (GE Healthcare) using standard ethyl(dimethylaminopropyl) carbodiimide (EDC)/N-hydroxysuccinimide (NHS) chemistry, with ethanolamine blocking, in a running buffer of 0.01 M HEPES pH 7.4, 0.15 M NaCl, 3 mM EDTA, 0.005% v/v tween 20. […] The running buffer for the kinetic experiments was 10 mM sodium phosphate, 130 mM sodium chloride, 0.05% tween 20, pH 7.1. The surfaces were regenerated after each cycle using two 30 s pulses of 10 mM glycine pH 1.5 at a flow rate of 30 μl/min. Sensogram data was double-referenced and then fitted to a 1:1 Langmuir model using Biacore T100 evaluation software v2.0.4, to determine the association rate constant (ka), the dissociation rate constant (kd), and the equilibrium dissociation constant (KD).
Binder,Kd,koff,kon
B1,9.4 nM and 6.2 nM,0.00077 s⁻¹ and 0.00049 s⁻¹,82000 M⁻¹ s⁻¹ and 79000 M⁻¹ s⁻¹
B2,0.43 nM,0.00038 s⁻¹,880000 M⁻¹ s⁻¹
B3,140 nM,0.0076 s⁻¹,55000 M⁻¹ s⁻¹
B4,41 nM,0.006 s⁻¹,150000 M⁻¹ s⁻¹

# Target: T1, human CD73 on cells (Calu6, NCI-H292, …)
# Assay: binding titration on Calu6 cells, average of 2-6 experiments
# Experimental: Titration binding curves were produced with CD73 antibodies on Calu6 (CD73 endogenous expressors; human pulmonary adenocarcinoma cell line), DMS114 (CD73 negative; human small cell lung cancer cell line), CHO-cynoCD73 (cynoCD73-transfected) and CHO-K1 (cynoCD73 negative), cells using Alexa Fluor® 647 Goat Anti-Human IgG (H+L) as a secondary antibody, Invitrogen Cat#A-21445, using the following method: 100000 cells were plated in 100 uL PBS+2% FBS per well and blocked for 20 min. Using a U-bottom 96-deep well plate, volumes of antibody and PBS+2% FBS were combined as dictated by Table 12 below.
# An 8-point serial dilution was performed by diluting a sixth of the volume (90 uL) into 450 μL PBS+2% FBS. The cell plate was spun down for 5 minutes at 1500 rpm. 100 uL of diluted antibody was added per well of the plate. 100 uL PBS+2% FBS were added to all other wells. […] The plates were spun down at 1500 rpm for 5 min and washed in 200 uL PBS +2% FBS per well. The plates were washed again, resuspended in 200 uL 2% FBS in PBS per well and the samples were run.
row,Binder,EC50 [nM]
1,B1,0.82
2,B2,0.35
3,B3,1.93
4,B4,11.7

# Target: T1, human CD73 on cells (Calu6, NCI-H292, …)
# Assay: cell-based or functional assay
# Remark: another data set of the same source
Binder,EC50 Calu6 inhibition [nM],EC50 H292 inhibition [nM],EC50 SKMEL24 inhibition [nM]
B2,0.95,1.31,3.72
B3,2.21,–,–
B4,8.1,13.5,110

# Target: T3, rhCD73 bound to his-tag magnet beads (human, UniProt P21589 27-549, limits assumed)
# T3 sequence: T1 sequence
# Assay: cell-based or functional assay
row,Binder,"EC50 (nM), inhibition of bead-bound rhCD73 enzymatic activity [nM]"
1,B1,5.31
2,B2,2.86
3,B3,3.12
4,B4,5.76
